# Assay results taken from the Human Domainome abundance scans (Beltran et al. 2025).
# ± gives the uncertainty stated by the source.
# B1: CD2-associated protein, residues 271 to 331; numbered along this chain, Q9Y5K6 (parent)
# chain: KEYCRTLFAYEGTNEDELTFKEGEIIHLISKETGEAGWWRGELNGKEGVFPDNFAVQINEL
# Variants of: B1
# Assay: abundance fitness (aPCA) (normalised: wild type 0, dead -1); higher = more abundant; growth selection in yeast, the domain comes from the species named
# Conditions: Homo sapiens
row,Variant,abundance fitness
1,KEYCRTLFAYEGTNEDELTFKEGEIIHLISKETGEAGWWRGELNGKEGVFPDDFAVQINEL [N53D],-0.094 ± 0.062
2,KEYCRTLFAYEGTNEDELTFKEGEIIHLISKETGEAGWWRGELNGKEGVFPDEFAVQINEL [N53E],-0.036 ± 0.11
3,KEYCRTLFAYEGTNEDELTFKEGEIIHLISKETGEAGWWRGELNGKEGVFPDLFAVQINEL [N53L],-0.133 ± 0.059
4,KEYCRTLFAYEGTNEDELTFKEGEIIHLISKETGEAGWWRGELNGKEGVFPDKFAVQINEL [N53K],0.133 ± 0.18
5,KEYCRTLFAYEGTNEDELTFKEGEIIHLISKETGEAGWWRGELNGKEGVFPDPFAVQINEL [N53P],-0.365 ± 0.084
6,KEYCRTLFAYEGTNEDELTFKEGEIIHLISKETGEAGWWRGELNGKEGVFPDTFAVQINEL [N53T],0.027 ± 0.065
7,KEYCRTLFAYEGTNEDELTFKEGEIIHLISKETGEAGWWRGELNGKEGVFPDVFAVQINEL [N53V],-0.185 ± 0.049
8,KEYCRTLFAYEGTNEDELTFKEGEIIHLISKETGEAGWWRGELNGKEGVFPDHFAVQINEL [N53H],-0.032 ± 0.065
9,KEYCRTLFAYEGTNEDELTFKEGEIIHLISKETGEAGWWRGELNGKEGVFPDRFAVQINEL [N53R],0.038 ± 0.055
10,KEYCRTLFAYEGTNEDELTFKEGEIIHLISKETGEAGWWRGELNGKEGVFPDMFAVQINEL [N53M],-0.198 ± 0.09
11,KEYCRTLFAYEGTNEDELTFKEGEIIHLISKETGEAGWWRGELNGKEGVFPDFFAVQINEL [N53F],-0.14 ± 0.059
12,KEYCRTLFAYEGTNEDELTFKEGEIIHLISKETGEAGWWRGELNGKEGVFPDIFAVQINEL [N53I],-0.193 ± 0.054
13,KEYCRTLFAYEGTNEDELTFKEGEIIHLISKETGEAGWWRGELNGKEGVFPDSFAVQINEL [N53S],0.012 ± 0.042
14,KEYCRTLFAYEGTNEDELTFKEGEIIHLISKETGEAGWWRGELNGKEGVFPDYFAVQINEL [N53Y],-0.084 ± 0.054
15,KEYCRTLFAYEGTNEDELTFKEGEIIHLISKETGEAGWWRGELNGKEGVFPDAFAVQINEL [N53A],-0.003 ± 0.052
16,KEYCRTLFAYEGTNEDELTFKEGEIIHLISKETGEAGWWRGELNGKEGVFPDQFAVQINEL [N53Q],-0.051 ± 0.092
17,KEYCRTLFAYEGTNEDELTFKEGEIIHLISKETGEAGWWRGELNGKEGVFPDCFAVQINEL [N53C],-0.138 ± 0.044
18,KEYCRTLFAYEGTNEDELTFKEGEIIHLISKETGEAGWWRGELNGKEGVFPDWFAVQINEL [N53W],-0.355 ± 0.14
19,KEYCRTLFAYEGTNEDELTFKEGEIIHLISKETGEAGWWRGELNGKEGVFPDNFRVQINEL [A55R],-1.07 ± 0.17
20,KEYCRTLFAYEGTNEDELTFKEGEIIHLISKETGEAGWWRGELNGKEGVFPDNFFVQINEL [A55F],-0.492 ± 0.19
21,KEYCRTLFAYEGTNEDELTFKEGEIIHLISKETGEAGWWRGELNGKEGVFPDNFHVQINEL [A55H],-1.01 ± 0.3
22,KEYCRTLFAYEGTNEDELTFKEGEIIHLISKETGEAGWWRGELNGKEGVFPDNFPVQINEL [A55P],-0.738 ± 0.14

row,Variant,abundance fitness
1,KEYCRTLFAYEGTNEDELTFKEGEIIHLISKETGEAGWWRGELNGKEGVFPDNFKVQINEL [A55K],-0.92 ± 0.17
2,KEYCRTLFAYEGTNEDELTFKEGEIIHLISKETGEAGWWRGELNGKEGVFPDNFWVQINEL [A55W],-0.623 ± 0.086
3,KEYCRTLFAYEGTNEDELTFKEGEIIHLISKETGEAGWWRGELNGKEGVFPDNFTVQINEL [A55T],-0.149 ± 0.093
4,KEYCRTLFAYEGTNEDELTFKEGEIIHLISKETGEAGWWRGELNGKEGVFPDNFMVQINEL [A55M],-0.886 ± 0.2
5,KEYCRTLFAYEGTNEDELTFKEGEIIHLISKETGEAGWWRGELNGKEGVFPDNFIVQINEL [A55I],-0.274 ± 0.13
6,KEYCRTLFAYEGTNEDELTFKEGEIIHLISKETGEAGWWRGELNGKEGVFPDNFCVQINEL [A55C],-0.058 ± 0.096
7,KEYCRTLFAYEGTNEDELTFKEGEIIHLISKETGEAGWWRGELNGKEGVFPDNFGVQINEL [A55G],-0.322 ± 0.093
8,KEYCRTLFAYEGTNEDELTFKEGEIIHLISKETGEAGWWRGELNGKEGVFPDNFLVQINEL [A55L],-0.573 ± 0.068
9,KEYCRTLFAYEGTNEDELTFKEGEIIHLISKETGEAGWWRGELNGKEGVFPDNFEVQINEL [A55E],-0.726 ± 0.13
10,KEYCRTLFAYEGTNEDELTFKEGEIIHLISKETGEAGWWRGELNGKEGVFPDNFYVQINEL [A55Y],-0.919 ± 0.33
11,KEYCRTLFAYEGTNEDELTFKEGEIIHLISKETGEAGWWRGELNGKEGVFPDNFDVQINEL [A55D],-0.671 ± 0.14
12,KEYCRTLFAYEGTNEDELTFKEGEIIHLISKETGEAGWWRGELNGKEGVFPDNFSVQINEL [A55S],-0.505 ± 0.077
13,KEYCRTLFAYEGTNEDELTFKEGEIIHLISKETGEAGWWRGELNGKEGVFPDNFVVQINEL [A55V],0.034 ± 0.078
14,KEYCRTLFAYEGTNEDELTFKEGEIIHLISKETGEAGWWRGELNGKEGVFPDNFAEQINEL [V56E],0.003 ± 0.2
15,KEYCRTLFAYEGTNEDELTFKEGEIIHLISKETGEAGWWRGELNGKEGVFPDNFAGQINEL [V56G],-0.173 ± 0.18
16,KEYCRTLFAYEGTNEDELTFKEGEIIHLISKETGEAGWWRGELNGKEGVFPDNFACQINEL [V56C],-0.314 ± 0.13
17,KEYCRTLFAYEGTNEDELTFKEGEIIHLISKETGEAGWWRGELNGKEGVFPDNFAFQINEL [V56F],-0.456 ± 0.12
18,KEYCRTLFAYEGTNEDELTFKEGEIIHLISKETGEAGWWRGELNGKEGVFLDNFAVQINEL [P51L],-0.377 ± 0.068
19,KEYCRTLFAYEGTNEDELTFKEGEIIHLISKETGEAGWWRGELNGKEGVFQDNFAVQINEL [P51Q],-0.137 ± 0.1
20,KEYCRTLFAYEGTNEDELTFKEGEIIHLISKETGEAGWWRGELNGKEGVFRDNFAVQINEL [P51R],-0.032 ± 0.05
21,KEYCRTLFAYEGTNEDELTFKEGEIIHLISKETGEAGWWRGELNGKEGVFGDNFAVQINEL [P51G],-0.893 ± 0.096
